Legend:
[1] = molecular target: mechanosensitive channel of large conductance (MscL) from Mycobacterium tuberculosis (tag-removed) (Mycobacterium tuberculosis); assay: native MS
native MS = molecular target: the molecule itself; assay: native MS

## mechanosensitive channel of large conductance (MscL) from Mycobacterium tuberculosis (tag-removed) (natural protein)
[1]
  stoichiometry N: 5

B1: ammonia channel AmtB from E. coli (tag-removed) (natural protein)
chain: GASVADKADNAFMMICTALVLFMTIPGIALFYGGLIRGKNVLSMLTQVTVTFALVCILWVVYGYSLAFGEGNNFFGNINWLMLKNIELTAVMGSIYQYIHVAFQGSFACITVGLIVGALAERIRFSAVLIFVVVWLTLSYIPIAHMVWGGGLLASHGALDFAGGTVVHINAAIAGLVGAYLIGKRVGFGKEAFKPHNLPMVFTGTAILYIGWFGFNAGSAGTANEIAALAFVNTVVATAAAILGWIFGEWALRGKPSLLGACSGAIAGLVGVTPACGYIGVGGALIIGVVAGLAGLWGVTMLKRLLRVDDPCDVFGVHGVCGIVGCIMTGIFAASSLGGVGFAEGVTMGHQLLVQLESIAITIVWSGVVAFIGYKLADLTVGLRVPEEQEREGLDVNSHGENAYNA
Native MS
  stoichiometry N: 3

— article PMC4087533 (Nature, 2014)
